Source: patent US8455433B2, “Process for solubilizing glucagon-like peptide 1 compounds” (Eli Lilly and Company, priority 2000, dated 2013)

Legend:
[1] = Secondary structure by Fourier Transform Infrared Spectroscopy (FTIR); assay type: physicochemical; details: for alpha helix percent 1657 cm^-1 / beta sheet character percent 1624 + 1696 cm^-1: Samples 1-5 before and 1A-5A after base excursion pH 12.3, Table 2; for percent alpha helix content / percent beta sheet content: Table 3, pH 10.5 excursion experiment; for 1624 + 1696 cm^-1 total beta sheet, % / 1657 cm^-1 Alpha helix, %: purified, lyophilized batches, Table 1
Procedure: Four different batches of purified, lyophilized Val-8 GLP-1(7-37)OH were analyzed for secondary structure characteristics by Fourier Transform Infra-red Spectroscopy (FTIR) to assess alpha helix and beta sheet content of the preparations. Deconvolution was done on the Amide I region (1750-1600 cm^−1) using BioRad Win-IR Pro Software version 2.5. The results are shown below in the Table 1:
Each of Samples 1-5 was measured for secondary structure characteristics by Fourier Transform Infrared Spectroscopy (FTIR). In addition, each Sample 1-5 was placed into 20 mM phosphate solution (pH 7.2) and the pH raised to 12.3 by addition of 1N sodium hydroxide for no more than 3 minutes. All samples then dissolved and the solutions became clear. The pH of each solution was then adjusted to 7.0 by addition of 1N hydrochloric acid. Samples 1A-5A, obtained from Samples 1-5, respectively, were then obtained by lyophilization of the solutions and dried in vacuo. The secondary structural characteristics of Samples 1A-5A were assessed by FTIR. The results of the FTIR analysis of Samples 1-5 and 1A-5A are shown below in Table 2:
In another example of the effects of base excursion on secondary structure, a purified, lyophilized sample of Val^8-GLP-1(7-37)OH purified by reversed chromatography was either lyophilized (0.1 gram) or precipitated by addition of sufficient 3.0 M sodium dihydrogen phosphate (pH 3.80) to result in a 0.6 M phosphate solution. The resultant precipitate was washed with 10 mM sodium acetate at pH 5.5 and the washed precipitate was dried in vacuo. A second portion of the washed precipitate was solubilized by raising the pH of the material to 10.5 for 30 minutes at room temperature by addition of 1N sodium hydroxide. The pH of that solution was then reduced to 7.0 by addition of 1.0 N hydrochloric acid and the solution was then lyophilized. The secondary structure of the three samples was determined by FTIR.

physchem = assay type: physicochemical
Procedure: Val^8-GLP-1(7-37)OH (1 gram) lyophilized powder was dissolved in 25 mM ammonium bicarbonate, pH 8.0 (100 ml). The solution was stirred with a TEFLON stir bar at about 200 rpm at 21° C. (ambient temperature) for 16 hours. At varying times, usually within 30 minutes, the solution became hazy. On continued stirring, the haze became visibly more dense. The kinetics of the turbidity were measured by rate of formation of turbidity, i.e. absorbance at 340 nm. The precipitated protein was harvested either by filtration, e.g. Whatman 1 filter disc, or centrifugation. The supernatant was assayed for protein content either by Biuret Colorimetric Assay obtained from Pierce (Rockford, Ill.) or UV absorbance at 280 nm. By either method, the protein precipitate constituted in excess of 90% of the starting material, i.e. there was less than 10% of the protein remaining in the supernatant fraction. The collected precipitate was dried in vacuo, i.e. in a lyophilizer. The resultant precipitated (0.96 grams) material was soluble in 20 mM phosphate at pH 7.2 at less than 0.01 mg/ml. Solubility was tested by suspension of the solid in the buffer, adjustment of pH, if necessary, and filtration through a 0.2 micron filter. The protein content of the filtrate was tested by either Biuret Colorimetric Assay, UV absorbance at 280 nm, or by high pressure liquid chromatography analysis (HPLC) analysis. […]

Molecule	alpha helix percent 1657 cm^-1 [1]	beta sheet character percent 1624 + 1696 cm^-1 [1]	1624 + 1696 cm^-1 total beta sheet, % [1]	1657 cm^-1 Alpha helix, % [1]	other results
3A: Sample 3 after pH 12.3 excursion, neutralized to 7.0 and lyophilized [Sample 3A]	62.2%	23.7%	–	–	–
pH 10.5 excursion: washed phosphate precipitate solubilized at pH 10.5 for 30 minutes, reduced to pH 7.0, lyophilized	–	–	–	–	percent alpha helix content [1]: 71%; percent beta sheet content [1]: 13%
Sample 5: precipitated fraction of Val^8-GLP-1(7-37)OH stirred in 10 mM phosphate pH 7.2	12.9%	57.3%	–	–	–
Phosphate precipitate: Val^8-GLP-1(7-37)OH precipitated in 0.6 M phosphate, washed and dried in vacuo	–	–	–	–	percent alpha helix content [1]: 57%; percent beta sheet content [1]: 35%
5A: Sample 5 after pH 12.3 excursion, neutralized to 7.0 and lyophilized [Sample 5A]	90.6%	none observed	–	–	–
Lyophilized mainstream: Val^8-GLP-1(7-37)OH purified by reversed chromatography and lyophilized	–	–	–	–	percent alpha helix content [1]: 71%; percent beta sheet content [1]: 16%
Sample 1: Val^8-GLP-1(7-37)OH isoelectric precipitate at pH 5.5 from 10 mM acetic acid	24.9%	69.8%	31.4%	62.7%	–
Sample 3: gelled Val^8-GLP-1(7-37)OH from acetic acid/25% acetonitrile incubated at 4 C for 3.1 months	25.5%	70.0%	30.6%	63.6%	–
Sample 2: Val^8-GLP-1(7-37)OH isoelectric precipitate approaching pH 5.5 from the alkaline side	51.9%	40.5%	29.3%	62.8%	–
2A: Sample 2 after pH 12.3 excursion, neutralized to 7.0 and lyophilized [Sample 2A]	85.9%	none observed	–	–	–
4A: Sample 4 after pH 12.3 excursion, neutralized to 7.0 and lyophilized [Sample 4A]	86.0%	none observed	–	–	–
Sample 4: soluble fraction of Val^8-GLP-1(7-37)OH stirred in 10 mM phosphate pH 7.2	75.8%	14.7%	28.9%	63.6%	–
CC[C@H](C)[C@H](NC(=O)[C@H](Cc1ccccc1)NC(=O)[C@H](CCC(=O)O)NC(=O)[C@H](CCCCN)NC(=O)[C@H](C)NC(=O)[C@H](C)NC(=O)[C@H](CCC(N)=O)NC(=O)CNC(=O)[C@H](CCC(=O)O)NC(=O)[C@H](CC(C)C)NC(=O)[C@H](Cc1ccc(O)cc1)NC(=O)[C@H](CO)NC(=O)[C@H](CO)NC(=O)[C@@H](NC(=O)[C@H](CC(=O)O)NC(=O)[C@H](CO)NC(=O)[C@@H](NC(=O)[C@H](Cc1ccccc1)NC(=O)[C@@H](NC(=O)CNC(=O)[C@H](CCC(=O)O)NC(=O)[C@H](C)NC(=O)[C@@H](N)Cc1c[nH]cn1)[C@@H](C)O)[C@@H](C)O)C(C)C)C(=O)N[C@@H](C)C(=O)N[C@@H](Cc1c[nH]c2ccccc12)C(=O)N[C@@H](CC(C)C)C(=O)N[C@H](C(=O)N[C@@H](CCCCN)C(=O)NCC(=O)N[C@@H](CCCN=C(N)N)C(=O)NCC(=O)O)C(C)C [GLP-1(7-37)OH]	–	–	–	–	solubility thermodynamic (physchem; solubility): < 100 µg/mL; solubility thermodynamic (physchem; solubility (usually)): < 50 µg/mL
